Results as given in patent CN113735970A (INST MILITARY MEDICINE ACADEMY MILITARY SCIENCES PLA, dated 2021).

Tests used:
SARS-CoV-2 Beta株S-ECD蛋白 = SARS-CoV-2 Beta株S-ECD蛋白 (SARS-CoV-2 Beta株 (B.1.351), UniProt P0DTC2 14-1213)
SARS-CoV-2 Alpha株S-ECD蛋白 = SARS-CoV-2 Alpha株S-ECD蛋白 (SARS-CoV-2 Alpha株 (B.1.1.7), UniProt P0DTC2 14-1213)
SARS-CoV-2 Gamma株S-ECD蛋白 = SARS-CoV-2 Gamma株S-ECD蛋白 (SARS-CoV-2 Gamma株 (P.1), UniProt P0DTC2 14-1213)
SARS-CoV-2 Delta株S-ECD蛋白 = SARS-CoV-2 Delta株S-ECD蛋白 (SARS-CoV-2 Delta株 (B.1.617.2), UniProt P0DTC2 14-1213)

B1: 抗SARS-CoV-2全人源单克隆抗体ZWC6 (antibody, human IgG1, kappa, V domains shown)
VH: EVQLVESGGGVVQPGTSLRLSCAASGFSFSHYVMYWVRQAPGKGLDWVAIISFDGSSQYYADSVKGRFTISRDNSKDTLYLQMHSLRPEDTAVYYCAIHGGTYYYDKNILAWGQGTLVTVSS
VL: AIRMTQSPPTLSLSPGERATLSCRASQSVTNYLVWYQQKPGQAPRLLIYDTFNRATGIPARFSGSGSGTDFTLTISSLEPEDFAVYYCQQRSNWPPTFGQGTKVDIKR
- Kd (SARS-CoV-2 Beta株S-ECD蛋白): 0.658 nM
- koff (SARS-CoV-2 Beta株S-ECD蛋白): 0.000121 s⁻¹
- kon (SARS-CoV-2 Beta株S-ECD蛋白): 184000 M⁻¹ s⁻¹
- Kd (SARS-CoV-2 Alpha株S-ECD蛋白): 0.938 nM
- koff (SARS-CoV-2 Alpha株S-ECD蛋白): 0.000164 s⁻¹
- kon (SARS-CoV-2 Alpha株S-ECD蛋白): 175000 M⁻¹ s⁻¹
- Kd (SARS-CoV-2 Gamma株S-ECD蛋白): 1.2 nM
- koff (SARS-CoV-2 Gamma株S-ECD蛋白): 0.000182 s⁻¹
- kon (SARS-CoV-2 Gamma株S-ECD蛋白): 151000 M⁻¹ s⁻¹
- Kd (SARS-CoV-2 Delta株S-ECD蛋白): 4.21 nM
- koff (SARS-CoV-2 Delta株S-ECD蛋白): 0.000305 s⁻¹
- kon (SARS-CoV-2 Delta株S-ECD蛋白): 72400 M⁻¹ s⁻¹
